B1: HDV Ribozyme (parent)
chain: GGCCGGCAUGGUCCCAGCCUCCUCGCUGGCGCCGGCUGGGCAACAUUCCGAGGGGACCGUCCCCUCGGUAAUGGCGAAUGGGACCCA

The variants in the series derive from B1. Kind of series: self-cleavage, relative activity (ratio to wild type); higher = more cleavage; co-transcriptional.
For the variant GGCCGGCAUGGACCCCGCCUCCUCGCUGGCGCCGGCUGGGCAACAUUCCGAGGGGACCGUCCCCUCGGUAAUGGCGAAUGGGACCCA [U12A A16C], the self-cleavage came to 0.499.
As for GGCCGGCAUGGACCCAGCCUACUCGCUGGCGCCGGCUGGGCAACAUUCCGAGGGGACCGUCCCCUCGGUAAUGGCGAAUGGGACCCA [U12A C21A], the self-cleavage amounted to 0.0678.
GGCCGGCAUGGACCCAGCCUCCUCGCUGGCGCCGGCUGGGCAAUAUUCCGAGGGGACCGUCCCCUCGGUAAUGGCGAAUGGGACCCA [U12A C44U]: the self-cleavage amounted to 0.
For GGCCGGCAUGGACCCAGCCUCCUCGCUGGCGCCGGCUGGGCAAAAUUCCGAGGGGACCGUCCCCUCGGUAAUGGCGAAUGGGACCCA [U12A C44A], the self-cleavage worked out at 0.
Regarding GGCCGGCAUGGACCCAGCCUCCUCGCUGGCGCCGGCUGGGCAUCAUUCCGAGGGGACCGUCCCCUCGGUAAUGGCGAAUGGGACCCA [U12A A43U], the self-cleavage is 0.147.
Turning to GGCCGGCAUGUUCCCAGCCUCCUCGCUGGCGCCGGCUGGGCAACAUUCCGAGGGGACCGUCCCCUCGGUAAUGGCGAAUAGGACCCA [G11U G80A], the self-cleavage stood at 0.136.
On to GGCCGGCAUGGACCCAGCCUCCUCGCUGGCGCCGGCUGGGCAACAUUCCGAGGGGACCGUCCCCUCGGUAAUGGCGAAUGGGGCCCA [U12A A83G], for which the self-cleavage is 0.302.
As for GGCCGGCAUGGACCUAGCCUCCUCGCUGGCGCCGGCUGGGCAACAUUCCGAGGGGACCGUCCCCUCGGUAAUGGCGAAUGGGACCCA [U12A C15U], the self-cleavage stood at 0.138.
The result for GGCCGGCAUGUUCCCAGCCUCCUCGCUGGCGCCGGCUGGGCAACAUUCCGAGGGGACCGUCCCCACGGUAAUGGCGAAUGGGACCCA [G11U U65A] reads 0.321; that for GGCCGGCAUGGACCCAGCCUCCUCGCUGGCGCCGGCUGGGUAACAUUCCGAGGGGACCGUCCCCUCGGUAAUGGCGAAUGGGACCCA [U12A C41U], 0.147; that for GGCCGGCAUGGACCCAGGCUCCUCGCUGGCGCCGGCUGGGCAACAUUCCGAGGGGACCGUCCCCUCGGUAAUGGCGAAUGGGACCCA [U12A C18G], 0.0405.
Consider GGCCGGCAUGUCCCCAGCCUCCUCGCUGGCGCCGGCUGGGCAACAUUCCGAGGGGACCGUCCCCUCGGUAAUGGCGAAUGGGACCCA [G11U U12C], for which the self-cleavage amounted to 0.125.
Turning to GGCCGGCAUGUGCCCAGCCUCCUCGCUGGCGCCGGCUGGGCAACAUUCCGAGGGGACCGUCCCCUCGGUAAUGGCGAAUGGGACCCA [G11U U12G], the self-cleavage was determined as 0.199.
With GGCCGGCAUGGACCCAGCCUCCUAGCUGGCGCCGGCUGGGCAACAUUCCGAGGGGACCGUCCCCUCGGUAAUGGCGAAUGGGACCCA [U12A C24A], the self-cleavage came to 0.104.
As to GGCCGGCAUGGACCCAGCCUCCUCGCUGGCGACGGCUGGGCAACAUUCCGAGGGGACCGUCCCCUCGGUAAUGGCGAAUGGGACCCA [U12A C32A], the self-cleavage came to 0.131.
As for GGCCGGCAUGGACCCAGCCUCCUCGCUGGCGGCGGCUGGGCAACAUUCCGAGGGGACCGUCCCCUCGGUAAUGGCGAAUGGGACCCA [U12A C32G], the self-cleavage came to 0.225.
Consider GGCCGGCAUGGACCCAGCCUCCUCGCUGGCGCCGGCUGGGCAACAUUCCGAGGGGACCGUCCCCUCGGUAAUGGCGAAUGGGACCCA [U12A], for which the self-cleavage came out at 0.309.
The value for GGCCGGCAUGUUCCCAGCCGCCUCGCUGGCGCCGGCUGGGCAACAUUCCGAGGGGACCGUCCCCUCGGUAAUGGCGAAUGGGACCCA [G11U U20G] was 0.0791; that for GGCCGGCAUGGACCCAGCCUCCUCGCUGGCGCCGGCUGGGCAACAUUGCGAGGGGACCGUCCCCUCGGUAAUGGCGAAUGGGACCCA [U12A C48G] was 0.415; that for GGCCGGCAUGUUCCCAGCCUCCUCGCUGGCGCCGGCUGGGCAACAUUCCGAGGGGACCGUCCCCUCGGUAACGGCGAAUGGGACCCA [G11U U72C] was 0.231.
Regarding GGCCGGCAUGGACCCAGCCUCCUCGCUGGCGCCGGCUGGGCCACAUUCCGAGGGGACCGUCCCCUCGGUAAUGGCGAAUGGGACCCA [U12A A42C], the self-cleavage is 0.147.
The value for GGCCGGCAUGGACCCAGCCUCCUCGCUGGCGCCGGCUGGGCGACAUUCCGAGGGGACCGUCCCCUCGGUAAUGGCGAAUGGGACCCA [U12A A42G] was 0.256; that for GGCCGGCAUGGACCCAGCCUCCUCGCUGGCGCCGGCUGGGCUACAUUCCGAGGGGACCGUCCCCUCGGUAAUGGCGAAUGGGACCCA [U12A A42U] was 0.119.
Turning to GGCCGGCAUGUUCCCAGCCUCCUCGCUGGCGCCGGCUGGGCAACAUUCCGAGGGGACCGUCCCCUCGGUAAUGGCGAAUGUGACCCA [G11U G81U], the self-cleavage came to 0.138.
The result for GGCCGGCAUGUUCCCAGCCUCCUCGCUGGCGCCGGCUGGGCAACACUCCGAGGGGACCGUCCCCUCGGUAAUGGCGAAUGGGACCCA [G11U U46C] reads 0.135; that for GGCCGGCAUGGACCCAGCCUCCUCGCUGGCGCCGGCUGGGCAACAUUCCGAGGGGACCGUCCCCUCGGUCAUGGCGAAUGGGACCCA [U12A A70C], 0.332; that for GGCCGGCAUGGACCCAGCCUCCUCGCUGGCGCCGGCUGGGCAACAUUCCGGGGGGACCGUCCCCUCGGUAAUGGCGAAUGGGACCCA [U12A A51G], 0.196.
Take GGCCGGCAUGUUCCCAGCCUCCUCGCUGGCGCCGGCUGGGCAACAUACCGAGGGGACCGUCCCCUCGGUAAUGGCGAAUGGGACCCA [G11U U47A]: the self-cleavage was 0.397.
The result for GGCCGGCAUGGACCCAGCCUCCUCGCUGGCGCCGGCUGGGCAACAUUCAGAGGGGACCGUCCCCUCGGUAAUGGCGAAUGGGACCCA [U12A C49A] reads 0.128; that for GGCCGGCAUGGACCCAGCUUCCUCGCUGGCGCCGGCUGGGCAACAUUCCGAGGGGACCGUCCCCUCGGUAAUGGCGAAUGGGACCCA [U12A C19U], 0.0831.
The value for GGCCGGCAUGUUCCCAGCCUCCUCGCGGGCGCCGGCUGGGCAACAUUCCGAGGGGACCGUCCCCUCGGUAAUGGCGAAUGGGACCCA [G11U U27G] was 0.353; that for GGCCGGCAUGGACCCAGCCUCCUCGCUGGCGCCGGUUGGGCAACAUUCCGAGGGGACCGUCCCCUCGGUAAUGGCGAAUGGGACCCA [U12A C36U] was 0.0678.
